The target of this test is full-length RABV G (isolate 8743THA) (Rabies lyssavirus, isolate 8743THA, UniProt B2XY12, strain). Put plainly: flow cytometry on cells. The following applies: one partner purified. Background: A flow cytometer gives signals particle by particle.

B1: RVC20 (human broadly neutralizing monoclonal antibody, recombinant IgG1/kappa) (antibody, V domains shown)
VH: QVQLQESGPGLVKPSQTLSLTCTVSGGSFSSGSYSWNWIRQHPGKGLEWIGYIYYSGSTYYNPSLKSRVTMSVHTSKNQFSLKLNSITAADTAVYYCARGTYSDFWSGSPLDYWGQGTLVTVSS
VL: DIQMTQSPSSLSASVGDRVTITCRASQGISNYLAWFQQKPGKAPKSLIYAASSLQSGVPSRFSGSGSGTDFTLTINSLQPEDFVTYFCQQYDTYPLTFGGGTKVEIK
In the case of B1, the binding result was “binds”.
